# Measured values taken from PMC8887137.
# Test system: NSP12 (RNA-dependent RNA polymerase) (SARS-CoV-2)
# Experiment: filter binding
# Settings: 20 mM Tris, 200 mM KCl, room temperature, 1 h; pH not stated
substance,measurement,value
"NSP12 eCLIP peak RNA, region 7431-7555 (hairpin)",Kd,17 nM
